{
  "source": "paper PMC7688234",
  "about": "“Salt Stress Response of Sulfolobus acidocaldarius Involves Complex Trehalose Metabolism Utilizing a Novel Trehalose-6-Phosphate Synthase (TPS)/Trehalose-6-Phosphate Phosphatase (TPP) Pathway” (Applied and Environmental Microbiology, 2020)",
  "proteins": {"B1": {"name": "trehalose-6-phosphate synthase (TPS, Saci_1249) of Sulfolobus acidocaldarius (enzyme, UniProt Q4J9D6 1-444, looked up)", "chain": "MFSVSISTQTPPVRFRYTYRDLMDKYGFFELPIELSQLDSSDYYFSVGGVPKMMLSLINKFNKVRWVSLGPGYPPQVKYGDQRLFDFIDLDPENLKNYTRYKEGIYNESHGIEKYEIKPSEYISYADYNWISAKKLLEFHNDSDVYFINDFQLLLVGGIIGPSAPAILWYHIPFVPENLSPRIRDFIVRSFEGYDYVILSTKRDLEGLLRIGAKINARQVYPFIDTSTLRRGSKGEVDKVKSKYNIGKDEKVITVVARMDPMKSQDVAIMALKKIKESNAKLLLVGNGSFTSGALGTNKAGNWVRKLQSLASNLGVDKKVVFTGHVSDEELNAIYEASDVIVLPSRIEGFGLVVCEGWFFEKPAIVSSGAGVSELVIDGSNGFVFKSGNYEELAEKIDIVLKEPDKYSRLSRDTVNKCNVEYAFNQLKDIFAQAMKDYGKNVNL", "notes": "Trehalose-6-phosphate synthase TPS (Saci_1249), Sulfolobus acidocaldarius; gene of 1,335 bp encoding 444 amino acids, calculated mass 50.3 kDa; amplified from genomic DNA with primers that run from the start codon to the stop codon, cloned into pET15b; The N-terminal His tag comes from pET15b; also called GT4-like TPS; source: E. coli BL21(DE3)-CodonPlus, purified …"}},
  "key": {"[1]": {"substrate": "Nc1ncnc2c1ncn2[C@@H]1O[C@H](COP(=O)(O)OP(=O)(O)O[C@H]2O[C@H](CO)[C@@H](O)[C@H](O)[C@H]2O)[C@@H](O)[C@H]1O", "assay": "purified protein", "assay_type": "biochemical, Sulfolobus acidocaldarius", "conditions": "glycosyl donor, G6P as acceptor (standard 10 mM), 10 mM MgCl2, 50 mM HEPES-KOH pH 7, 55°C"}, "[2]": {"substrate": "O=c1ccn([C@@H]2O[C@H](CO[P@@](=O)(O)O[P@@](=O)(O)O[C@H]3O[C@H](CO)[C@@H](O)[C@H](O)[C@H]3O)[C@@H](O)[C@H]2O)c(=O)[nH]1", "assay": "purified protein", "assay_type": "biochemical, Sulfolobus acidocaldarius", "conditions": "glycosyl donor, G6P as acceptor (standard 10 mM), 10 mM MgCl2, 50 mM HEPES-KOH pH 7, 55°C"}, "[3]": {"target": "the molecule itself", "assay": "SEC; gel filtration under native conditions against SDS-PAGE under denaturing conditions; Superdex 200 HiLoad 26/60, 30 mM Tris-300 mM NaCl, pH 7"}},
  "data": [
    {"protein": "B1", "values": [
      {"measurement": "Km", "setting": "[1]", "value": 1800, "unit": "µM"},
      {"measurement": "Km", "setting": "[2]", "value": 3800, "unit": "µM"},
      {"measurement": "kcat", "setting": "[2]", "value": 4.9, "unit": "s⁻¹"},
      {"measurement": "stoichiometry N", "setting": "[3]", "value": 2}
    ]}
  ]
}
